Measurements as given in patent US20250277046A1 (JULIUS MAXIMILIANS UNIVERSIT T W RZBURG, published 2025).

T1: Fibroblast growth factor (FGF)-inducible 14 (Fn14) (UniProt Q9NP84 28-129, limits assumed)
T1 sequence (looked up): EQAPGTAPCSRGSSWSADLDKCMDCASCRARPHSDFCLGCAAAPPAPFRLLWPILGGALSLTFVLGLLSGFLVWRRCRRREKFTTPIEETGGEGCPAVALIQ

B1: 18D1-(2) (antibody)
heavy: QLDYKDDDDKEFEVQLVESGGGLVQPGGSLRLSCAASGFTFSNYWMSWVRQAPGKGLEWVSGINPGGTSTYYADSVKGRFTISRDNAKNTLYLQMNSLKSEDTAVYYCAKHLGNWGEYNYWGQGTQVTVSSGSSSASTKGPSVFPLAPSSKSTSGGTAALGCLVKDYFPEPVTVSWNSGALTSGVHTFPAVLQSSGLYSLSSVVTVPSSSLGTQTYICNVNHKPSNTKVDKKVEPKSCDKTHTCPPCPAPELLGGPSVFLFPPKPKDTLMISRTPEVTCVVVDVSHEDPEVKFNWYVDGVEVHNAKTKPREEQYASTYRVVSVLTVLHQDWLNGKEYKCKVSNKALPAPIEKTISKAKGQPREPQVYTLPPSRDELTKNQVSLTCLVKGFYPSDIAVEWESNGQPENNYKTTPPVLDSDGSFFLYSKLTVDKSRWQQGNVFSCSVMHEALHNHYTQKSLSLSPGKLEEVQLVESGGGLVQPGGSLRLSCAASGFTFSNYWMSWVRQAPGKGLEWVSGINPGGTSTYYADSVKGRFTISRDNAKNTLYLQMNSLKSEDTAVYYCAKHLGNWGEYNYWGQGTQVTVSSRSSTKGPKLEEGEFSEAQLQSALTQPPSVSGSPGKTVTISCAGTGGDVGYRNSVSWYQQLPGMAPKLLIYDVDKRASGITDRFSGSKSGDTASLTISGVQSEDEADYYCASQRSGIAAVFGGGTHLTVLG
light: QLDYKDDDDKEFQSALTQPPSVSGSPGKTVTISCAGTGGDVGYRNSVSWYQQLPGMAPKLLIYDVDKRASGITDRFSGSKSGDTASLTISGVQSEDEADYYCASQRSGIAAVFGGGTHLTVLGGSEIKRTVAAPSVFIFPPSDEQLKSGTASVVCLLNNFYPREAKVQWKVDNALQSGNSQESVTEQDSKDSTYSLSSTLTLSKADYEKHKVYACEVTHQGLSSPVTKSFNRGEC
B2: 18D1-(3) (antibody)
heavy: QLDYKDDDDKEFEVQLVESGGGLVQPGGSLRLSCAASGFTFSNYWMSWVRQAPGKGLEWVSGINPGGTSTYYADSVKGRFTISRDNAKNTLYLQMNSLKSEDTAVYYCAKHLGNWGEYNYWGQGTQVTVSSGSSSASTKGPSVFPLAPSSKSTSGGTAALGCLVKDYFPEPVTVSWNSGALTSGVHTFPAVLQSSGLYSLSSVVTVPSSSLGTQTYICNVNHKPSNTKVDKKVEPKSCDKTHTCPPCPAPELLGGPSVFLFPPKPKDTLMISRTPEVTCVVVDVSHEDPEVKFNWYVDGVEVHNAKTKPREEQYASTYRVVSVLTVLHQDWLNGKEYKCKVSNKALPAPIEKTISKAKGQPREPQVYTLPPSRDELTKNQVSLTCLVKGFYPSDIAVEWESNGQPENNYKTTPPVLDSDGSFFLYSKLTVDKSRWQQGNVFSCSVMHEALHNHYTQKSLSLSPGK
light: QLDYKDDDDKEFQSALTQPPSVSGSPGKTVTISCAGTGGDVGYRNSVSWYQQLPGMAPKLLIYDVDKRASGITDRFSGSKSGDTASLTISGVQSEDEADYYCASQRSGIAAVFGGGTHLTVLGGSEIKRTVAAPSVFIFPPSDEQLKSGTASVVCLLNNFYPREAKVQWKVDNALQSGNSQESVTEQDSKDSTYSLSSTLTLSKADYEKHKVYACEVTHQGLSSPVTKSFNRGECLEEVQLVESGGGLVQPGGSLRLSCAASGFTFSNYWMSWVRQAPGKGLEWVSGINPGGTSTYYADSVKGRFTISRDNAKNTLYLQMNSLKSEDTAVYYCAKHLGNWGEYNYWGQGTQVTVSSRSSTKGPKLEEGEFSEAQLQSALTQPPSVSGSPGKTVTISCAGTGGDVGYRNSVSWYQQLPGMAPKLLIYDVDKRASGITDRFSGSKSGDTASLTISGVQSEDEADYYCASQRSGIAAVFGGGTHLTVLG
B3: 18D1-(4) (antibody)
heavy: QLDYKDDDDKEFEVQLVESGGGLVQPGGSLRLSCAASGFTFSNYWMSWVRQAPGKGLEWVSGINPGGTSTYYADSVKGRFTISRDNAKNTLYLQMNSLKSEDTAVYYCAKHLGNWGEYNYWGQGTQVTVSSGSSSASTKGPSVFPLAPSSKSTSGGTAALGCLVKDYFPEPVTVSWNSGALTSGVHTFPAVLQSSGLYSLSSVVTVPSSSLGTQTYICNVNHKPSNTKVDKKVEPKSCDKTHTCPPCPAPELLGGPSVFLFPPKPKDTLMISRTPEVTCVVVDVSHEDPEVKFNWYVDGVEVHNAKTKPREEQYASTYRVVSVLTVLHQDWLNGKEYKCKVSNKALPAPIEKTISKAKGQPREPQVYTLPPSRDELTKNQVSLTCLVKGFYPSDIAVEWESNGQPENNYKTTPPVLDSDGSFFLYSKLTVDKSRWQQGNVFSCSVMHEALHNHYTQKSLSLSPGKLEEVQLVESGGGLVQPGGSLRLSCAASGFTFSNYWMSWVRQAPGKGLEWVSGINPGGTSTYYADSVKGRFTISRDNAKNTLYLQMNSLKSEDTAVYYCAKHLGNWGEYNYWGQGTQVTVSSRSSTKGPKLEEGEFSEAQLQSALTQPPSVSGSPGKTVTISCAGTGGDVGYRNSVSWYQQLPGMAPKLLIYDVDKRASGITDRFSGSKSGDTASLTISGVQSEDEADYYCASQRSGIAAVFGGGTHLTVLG
light: B2 light
B4: 18D1-(5) (antibody)
heavy: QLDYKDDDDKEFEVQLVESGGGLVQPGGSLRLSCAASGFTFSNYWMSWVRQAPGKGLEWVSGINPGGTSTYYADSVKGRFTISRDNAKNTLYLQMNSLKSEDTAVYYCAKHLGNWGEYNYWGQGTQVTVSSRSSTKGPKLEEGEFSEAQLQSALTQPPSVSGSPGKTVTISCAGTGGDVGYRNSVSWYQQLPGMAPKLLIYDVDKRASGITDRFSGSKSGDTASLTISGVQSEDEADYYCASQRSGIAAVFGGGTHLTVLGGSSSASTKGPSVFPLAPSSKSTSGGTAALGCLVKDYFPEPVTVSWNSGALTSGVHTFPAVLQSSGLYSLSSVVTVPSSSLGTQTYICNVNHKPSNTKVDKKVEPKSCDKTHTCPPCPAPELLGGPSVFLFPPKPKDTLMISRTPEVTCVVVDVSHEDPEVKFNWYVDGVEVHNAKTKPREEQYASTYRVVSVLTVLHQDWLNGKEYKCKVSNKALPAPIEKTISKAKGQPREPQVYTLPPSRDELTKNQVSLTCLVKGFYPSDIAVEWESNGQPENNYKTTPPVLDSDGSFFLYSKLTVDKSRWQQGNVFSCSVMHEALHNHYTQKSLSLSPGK
light: QLDYKDDDDKEFEVQLVESGGGLVQPGGSLRLSCAASGFTFSNYWMSWVRQAPGKGLEWVSGINPGGTSTYYADSVKGRFTISRDNAKNTLYLQMNSLKSEDTAVYYCAKHLGNWGEYNYWGQGTQVTVSSRSSTKGPKLEEGEFSEAQLQSALTQPPSVSGSPGKTVTISCAGTGGDVGYRNSVSWYQQLPGMAPKLLIYDVDKRASGITDRFSGSKSGDTASLTISGVQSEDEADYYCASQRSGIAAVFGGGTHLTVLGGSEIKRTVAAPSVFIFPPSDEQLKSGTASVVCLLNNFYPREAKVQWKVDNALQSGNSQESVTEQDSKDSTYSLSSTLTLSKADYEKHKVYACEVTHQGLSSPVTKSFNRGEC
B5: 18D1-(6) (antibody)
heavy: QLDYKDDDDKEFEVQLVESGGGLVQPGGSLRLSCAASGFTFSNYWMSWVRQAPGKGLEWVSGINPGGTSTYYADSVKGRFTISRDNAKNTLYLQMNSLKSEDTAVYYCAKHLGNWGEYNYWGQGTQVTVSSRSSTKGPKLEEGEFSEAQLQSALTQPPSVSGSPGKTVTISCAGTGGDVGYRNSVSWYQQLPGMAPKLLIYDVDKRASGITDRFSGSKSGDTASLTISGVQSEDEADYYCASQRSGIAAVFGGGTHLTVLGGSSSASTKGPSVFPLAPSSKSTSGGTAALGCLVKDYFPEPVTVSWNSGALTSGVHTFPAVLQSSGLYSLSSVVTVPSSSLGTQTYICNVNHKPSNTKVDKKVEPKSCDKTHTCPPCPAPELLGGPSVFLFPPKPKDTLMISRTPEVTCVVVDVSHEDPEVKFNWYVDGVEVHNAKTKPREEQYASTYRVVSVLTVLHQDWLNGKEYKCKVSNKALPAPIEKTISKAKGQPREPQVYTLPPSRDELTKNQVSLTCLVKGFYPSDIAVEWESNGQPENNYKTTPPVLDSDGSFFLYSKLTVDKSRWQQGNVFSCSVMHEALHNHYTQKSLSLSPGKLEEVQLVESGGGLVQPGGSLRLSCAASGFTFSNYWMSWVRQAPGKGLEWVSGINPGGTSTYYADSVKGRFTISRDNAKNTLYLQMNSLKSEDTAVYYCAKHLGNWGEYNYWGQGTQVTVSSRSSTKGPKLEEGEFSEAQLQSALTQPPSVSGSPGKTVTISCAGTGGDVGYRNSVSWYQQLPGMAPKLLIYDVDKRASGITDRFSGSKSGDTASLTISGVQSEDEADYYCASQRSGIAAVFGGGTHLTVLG
light: B4 light
B6: 18D1-(7) (antibody)
heavy: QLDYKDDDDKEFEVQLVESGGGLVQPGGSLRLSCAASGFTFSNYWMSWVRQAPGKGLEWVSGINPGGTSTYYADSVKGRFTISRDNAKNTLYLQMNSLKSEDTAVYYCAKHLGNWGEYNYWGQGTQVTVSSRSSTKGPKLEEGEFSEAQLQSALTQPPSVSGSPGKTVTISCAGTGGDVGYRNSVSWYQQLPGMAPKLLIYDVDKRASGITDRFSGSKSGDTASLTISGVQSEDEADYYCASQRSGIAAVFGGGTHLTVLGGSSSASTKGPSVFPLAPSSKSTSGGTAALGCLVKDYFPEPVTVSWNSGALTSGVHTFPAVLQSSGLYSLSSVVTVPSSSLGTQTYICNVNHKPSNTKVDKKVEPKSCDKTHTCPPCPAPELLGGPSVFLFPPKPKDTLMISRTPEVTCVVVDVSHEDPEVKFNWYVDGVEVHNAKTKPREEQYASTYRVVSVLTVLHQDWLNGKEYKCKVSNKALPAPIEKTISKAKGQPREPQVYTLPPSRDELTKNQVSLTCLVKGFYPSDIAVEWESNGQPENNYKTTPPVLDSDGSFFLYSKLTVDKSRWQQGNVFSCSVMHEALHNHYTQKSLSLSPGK
light: QLDYKDDDDKEFEVQLVESGGGLVQPGGSLRLSCAASGFTFSNYWMSWVRQAPGKGLEWVSGINPGGTSTYYADSVKGRFTISRDNAKNTLYLQMNSLKSEDTAVYYCAKHLGNWGEYNYWGQGTQVTVSSRSSTKGPKLEEGEFSEAQLQSALTQPPSVSGSPGKTVTISCAGTGGDVGYRNSVSWYQQLPGMAPKLLIYDVDKRASGITDRFSGSKSGDTASLTISGVQSEDEADYYCASQRSGIAAVFGGGTHLTVLGGSEIKRTVAAPSVFIFPPSDEQLKSGTASVVCLLNNFYPREAKVQWKVDNALQSGNSQESVTEQDSKDSTYSLSSTLTLSKADYEKHKVYACEVTHQGLSSPVTKSFNRGECLEEVQLVESGGGLVQPGGSLRLSCAASGFTFSNYWMSWVRQAPGKGLEWVSGINPGGTSTYYADSVKGRFTISRDNAKNTLYLQMNSLKSEDTAVYYCAKHLGNWGEYNYWGQGTQVTVSSRSSTKGPKLEEGEFSEAQLQSALTQPPSVSGSPGKTVTISCAGTGGDVGYRNSVSWYQQLPGMAPKLLIYDVDKRASGITDRFSGSKSGDTASLTISGVQSEDEADYYCASQRSGIAAVFGGGTHLTVLG
B7: 18D1-(8) (antibody)
heavy: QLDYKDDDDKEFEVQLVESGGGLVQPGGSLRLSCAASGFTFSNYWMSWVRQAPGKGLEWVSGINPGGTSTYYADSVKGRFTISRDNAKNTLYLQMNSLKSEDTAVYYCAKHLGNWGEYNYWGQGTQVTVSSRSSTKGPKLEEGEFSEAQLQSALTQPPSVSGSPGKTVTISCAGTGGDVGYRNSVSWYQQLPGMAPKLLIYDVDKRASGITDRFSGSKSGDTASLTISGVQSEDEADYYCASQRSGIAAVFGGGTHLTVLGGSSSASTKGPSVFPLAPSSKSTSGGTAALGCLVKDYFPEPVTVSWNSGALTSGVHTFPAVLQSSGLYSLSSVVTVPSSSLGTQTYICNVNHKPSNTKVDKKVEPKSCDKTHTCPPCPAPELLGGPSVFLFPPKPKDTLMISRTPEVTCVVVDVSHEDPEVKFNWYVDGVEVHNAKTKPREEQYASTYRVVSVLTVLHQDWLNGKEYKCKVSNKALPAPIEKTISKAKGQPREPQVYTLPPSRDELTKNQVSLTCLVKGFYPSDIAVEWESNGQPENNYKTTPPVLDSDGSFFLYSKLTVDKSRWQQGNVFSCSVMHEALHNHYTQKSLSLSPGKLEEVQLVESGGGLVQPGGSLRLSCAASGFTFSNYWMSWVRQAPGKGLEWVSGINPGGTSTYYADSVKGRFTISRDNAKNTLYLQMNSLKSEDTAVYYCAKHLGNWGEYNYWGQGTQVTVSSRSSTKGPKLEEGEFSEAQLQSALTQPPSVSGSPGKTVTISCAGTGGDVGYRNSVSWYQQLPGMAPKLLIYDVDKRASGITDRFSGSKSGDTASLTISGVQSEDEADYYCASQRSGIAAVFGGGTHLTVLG
light: B6 light

Biological target: T1, Fibroblast growth factor …
Test: cell-based or functional assay

Binder | enhancement of TNF-induced toxicity (HeLa-RIPK3-FADDKO cells, 1 ng/ml TNF), ED50 [µg/mL] | p100 processing (western blot), starting concentration [ng/mL]
B1 | < 0.1 | ~20
B2 | < 0.1 | ~20
B3 | < 0.1 | ~20
B4 | < 0.1 | ~200
B5 | < 0.1 | ~200
B6 | < 0.1 | ~200
B7 | < 0.1 | ~200
